Data taken from patent US20260265409A1 (NANJING LEADS BIOLABS, published 2026).

T1: human FAP protein expressed on 293T cells (293T-human FAP) (human, UniProt Q12884 1-760)
T1 sequence: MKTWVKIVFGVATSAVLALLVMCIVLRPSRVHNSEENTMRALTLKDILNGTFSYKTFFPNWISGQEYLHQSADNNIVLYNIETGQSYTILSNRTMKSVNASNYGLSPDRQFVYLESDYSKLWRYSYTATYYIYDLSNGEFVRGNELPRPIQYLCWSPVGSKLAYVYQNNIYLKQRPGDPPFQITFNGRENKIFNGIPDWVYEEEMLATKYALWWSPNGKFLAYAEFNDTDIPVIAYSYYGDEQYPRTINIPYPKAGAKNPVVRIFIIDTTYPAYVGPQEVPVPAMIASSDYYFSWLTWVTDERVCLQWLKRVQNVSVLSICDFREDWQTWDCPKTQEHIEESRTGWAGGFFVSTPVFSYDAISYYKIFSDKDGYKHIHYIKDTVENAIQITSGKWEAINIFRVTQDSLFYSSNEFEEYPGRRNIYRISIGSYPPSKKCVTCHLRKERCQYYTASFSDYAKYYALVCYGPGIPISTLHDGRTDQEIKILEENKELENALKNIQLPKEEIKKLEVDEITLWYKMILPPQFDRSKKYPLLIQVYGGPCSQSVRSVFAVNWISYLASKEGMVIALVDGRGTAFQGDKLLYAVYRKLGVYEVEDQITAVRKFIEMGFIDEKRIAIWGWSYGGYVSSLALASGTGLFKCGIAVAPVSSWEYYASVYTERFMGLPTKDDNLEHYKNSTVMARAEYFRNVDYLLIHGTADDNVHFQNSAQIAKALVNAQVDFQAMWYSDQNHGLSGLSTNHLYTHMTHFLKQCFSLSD

T2: cynomolgus FAP protein expressed on 293T cells (293T-cynomolgus FAP) (cynomolgus monkey, UniProt Q12884 1-760 (human entry))
T2 sequence: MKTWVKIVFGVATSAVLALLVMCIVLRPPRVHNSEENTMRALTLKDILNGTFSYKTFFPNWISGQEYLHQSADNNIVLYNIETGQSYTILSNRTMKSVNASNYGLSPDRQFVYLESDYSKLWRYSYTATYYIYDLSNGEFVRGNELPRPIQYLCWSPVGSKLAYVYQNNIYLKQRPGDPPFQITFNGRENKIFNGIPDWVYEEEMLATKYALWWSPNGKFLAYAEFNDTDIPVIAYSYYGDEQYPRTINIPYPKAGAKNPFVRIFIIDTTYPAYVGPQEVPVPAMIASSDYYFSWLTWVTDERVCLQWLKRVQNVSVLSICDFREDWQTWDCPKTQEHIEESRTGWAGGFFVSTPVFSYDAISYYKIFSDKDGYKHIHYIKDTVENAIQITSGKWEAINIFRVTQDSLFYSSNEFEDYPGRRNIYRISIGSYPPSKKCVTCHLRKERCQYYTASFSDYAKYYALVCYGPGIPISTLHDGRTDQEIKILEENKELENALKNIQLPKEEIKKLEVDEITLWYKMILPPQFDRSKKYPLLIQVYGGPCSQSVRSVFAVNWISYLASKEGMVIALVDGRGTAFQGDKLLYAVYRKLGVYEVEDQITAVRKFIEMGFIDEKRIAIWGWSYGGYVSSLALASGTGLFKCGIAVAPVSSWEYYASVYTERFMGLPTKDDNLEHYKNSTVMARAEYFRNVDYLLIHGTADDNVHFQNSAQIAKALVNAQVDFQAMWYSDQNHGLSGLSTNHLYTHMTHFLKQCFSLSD

T3: recombinant human FAP protein (Sino Biological, Cat #10464-H07H) (human, UniProt Q12884 26-760)
T3 construct: Bought protein
T3 sequence: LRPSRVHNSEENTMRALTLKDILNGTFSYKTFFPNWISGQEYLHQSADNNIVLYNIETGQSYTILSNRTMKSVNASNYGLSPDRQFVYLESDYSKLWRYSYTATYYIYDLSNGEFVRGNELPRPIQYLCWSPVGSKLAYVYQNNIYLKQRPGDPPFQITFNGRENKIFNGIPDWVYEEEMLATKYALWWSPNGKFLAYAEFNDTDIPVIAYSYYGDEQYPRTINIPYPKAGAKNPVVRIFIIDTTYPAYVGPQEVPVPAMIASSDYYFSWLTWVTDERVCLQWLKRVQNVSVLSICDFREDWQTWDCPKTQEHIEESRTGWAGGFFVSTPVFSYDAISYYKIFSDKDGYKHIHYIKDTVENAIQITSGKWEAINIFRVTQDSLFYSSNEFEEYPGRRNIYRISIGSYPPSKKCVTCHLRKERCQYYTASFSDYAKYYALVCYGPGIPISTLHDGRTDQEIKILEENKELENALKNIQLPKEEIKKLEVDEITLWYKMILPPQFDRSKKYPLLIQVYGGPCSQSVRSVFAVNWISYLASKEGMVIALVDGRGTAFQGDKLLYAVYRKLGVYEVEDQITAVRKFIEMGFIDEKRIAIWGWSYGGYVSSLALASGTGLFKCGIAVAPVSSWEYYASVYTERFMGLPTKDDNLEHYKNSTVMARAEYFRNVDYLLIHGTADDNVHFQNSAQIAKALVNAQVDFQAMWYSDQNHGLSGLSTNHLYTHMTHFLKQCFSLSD


Legend:
[1] = molecular target: T1, human FAP protein expressed on 293T …; assay: flow cytometry on 293T-human FAP cells, PE goat anti-human IgG Fc secondary antibody
Experimental: (§1) The cells were washed twice with PBS, and then fluorescent secondary antibody R-PE-conjugated AffiniPure Goat Anti-Human IgG, Fcγ Fragment Specific (Jackson Immuno Research, Cat #109-116-098) was added. The cells were incubated at 4° C. for 30 min. The cells were washed twice with PBS and then resuspended, and finally, fluorescence signals were detected using the […] (BD Bioscience) flow cytometer.

[2] = molecular target: T4, human DPP4 protein expressed on 293T cells (293T-DPP4) (human, UniProt P27487 1-766); assay: flow cytometry on 293T-DPP4 cells, PE goat anti-human IgG Fc secondary antibody
T4 construct: also called CD26
Experimental: as §1, with “cytometer. […] The antibodies were diluted at 1:100 with PBS, and the cell pellet was resuspended and incubated at 4° C. for 30 min. The cells were washed twice with PBS and then resuspended in 100 μL of PBS, and finally, fluorescence signals were detected using the BD Accuri C5 (BD Bioscience) flow cytometer.” for “cytometer.”

[3] = molecular target: T2, cynomolgus FAP protein expressed on …; assay: flow cytometry on 293T-cynomolgus FAP cells, PE goat anti-human IgG Fc secondary antibody
Experimental: as §1

[4] = molecular target: T3, recombinant human FAP protein (Sino …); assay: ELISA, human FAP protein coated on the plate, detection with HRP goat anti-human IgG F(ab')2; unit from the axis 'Antibody Conc[nM]' and paragraph 217
Experimental: Human FAP protein (Sino Biological, Cat #10464-H07H) was immobilized on a 96-well plate by incubation overnight in a PBS buffer at 4° C. The plate was then blocked by incubation with a PBS containing 1% of BSA for 1 h at 37° C. After blocking, the plate was washed thrice with PBST (PBS containing 0.05% of Tween 20). […] After binding, the plate was washed thrice with PBST, incubated at 37° C. for 1 h with peroxidase-labeled goat anti-human IgG, F(ab′)₂ fragment specific (Jackson Immuno Research, Cat #109-035-097) diluted at 1/15,000 in the binding buffer, washed again, subjected to a chromogenic reaction with TMB, and quenched with 1 M H₂SO₄.

[5] = molecular target: T2, cynomolgus FAP protein expressed on …; assay: flow cytometry on 293T-cynomolgus FAP cells (panel title on the sheet), PE goat anti-human IgG Fc secondary antibody
Experimental: as §1

[6] = molecular target: T1, human FAP protein expressed on 293T …; assay: flow cytometry on 293T-human FAP cells (panel title on the sheet), PE goat anti-human IgG Fc secondary antibody
Experimental: as §1

T4 sequence (P27487 whole entry): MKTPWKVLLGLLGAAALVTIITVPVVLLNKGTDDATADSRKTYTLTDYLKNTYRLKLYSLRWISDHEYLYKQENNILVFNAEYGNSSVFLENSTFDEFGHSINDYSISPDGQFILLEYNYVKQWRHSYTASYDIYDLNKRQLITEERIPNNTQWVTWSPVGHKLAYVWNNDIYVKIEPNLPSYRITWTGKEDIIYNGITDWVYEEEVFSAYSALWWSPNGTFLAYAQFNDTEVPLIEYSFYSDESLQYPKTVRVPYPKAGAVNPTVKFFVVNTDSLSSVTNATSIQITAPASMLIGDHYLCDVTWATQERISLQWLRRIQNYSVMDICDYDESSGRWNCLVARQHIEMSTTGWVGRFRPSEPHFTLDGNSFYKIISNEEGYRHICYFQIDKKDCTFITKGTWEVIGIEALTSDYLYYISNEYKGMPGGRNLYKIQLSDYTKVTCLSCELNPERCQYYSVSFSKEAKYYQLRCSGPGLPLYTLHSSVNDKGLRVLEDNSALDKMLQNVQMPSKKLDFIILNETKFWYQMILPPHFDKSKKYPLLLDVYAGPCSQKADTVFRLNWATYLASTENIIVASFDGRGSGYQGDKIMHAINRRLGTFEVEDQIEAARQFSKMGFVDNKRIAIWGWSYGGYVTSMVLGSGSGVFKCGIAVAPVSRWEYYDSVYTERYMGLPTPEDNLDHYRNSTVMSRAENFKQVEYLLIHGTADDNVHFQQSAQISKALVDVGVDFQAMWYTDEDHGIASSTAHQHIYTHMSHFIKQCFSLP

Row | EC50 (read off the curve) [1] | binding result [2] | EC50 (read off the curve) [3] | EC50 [4] | EC50 (read off the curve) [5] | EC50 (read off the curve) [6] | Binder
1 | ~2 nM | no binding (tested: 10 µg/mL) | ~1 nM | 0.0863 nM | – | – | sibrotuzumab (humanized reference antibody) (antibody, human IgG1, kappa, V domains shown) VH: QVQLVQSGAEVKKPGASVKVSCKTSRYTFTEYTIHWVRQAPGQRLEWIGGINPNNGIPNYNQKFKGRVTITVDTSASTAYMELSSLRSEDTAVYYCARRRIAYGYDEGHAMDYWGQGTLVTVSS VL: DIVMTQSPDSLAVSLGERATINCKSSQSLLYSRNQKNYLAWYQQKPGQPPKLLIFWASTRESGVPDRFSGSGFGTDFTLTISSLQAEDVAVYYCQQYFSYPLTFGQGTKVEIKR
2 | ~2 nM | no binding (tested: 10 µg/mL) | 1 to 2 nM | 0.0926 nM | ~4 nM | ~3 nM | humanized anti-FAP antibody huF19-LG (antibody, human IgG1, kappa, V domains shown, Humanized from murine F19) VH: QVQLVQSGAEVKKPGASVKVSCKASGYTFTEYTIHWVRQATGQGLEWIGGINPNNGIPNYNQKFKGRATMTVGTSISTAYMELSSLRSEDTAVYFCARRRIAYGYDEGHAMDYWGQGTLVTVSS VL: DIQMTQSPSSLSASVGDRVTITCKSSQSLLYSRNQKNYLAWFQQKPGKAPKLLIFWASTRESGVPSRFTGSGFGTDFTLTISSLQPEDFATYYCQQYFSYPLTFGQGTKLEIKR
3 | – | – | – | – | ~3 nM | ~2 nM | mutant humanized FAP antibody huF19-LG-NGR (antibody, human IgG1, kappa, V domains shown, huF19-LG with G56R (Kabat) in HCDR2; also called optimized FAP antibody; mutant antibody) VH: QVQLVQSGAEVKKPGASVKVSCKASGYTFTEYTIHWVRQATGQGLEWIGGINPNNRIPNYNQKFKGRATMTVGTSISTAYMELSSLRSEDTAVYFCARRRIAYGYDEGHAMDYWGQGTLVTVSS VL: DIQMTQSPSSLSASVGDRVTITCKSSQSLLYSRNQKNYLAWFQQKPGKAPKLLIFWASTRESGVPSRFTGSGFGTDFTLTISSLQPEDFATYYCQQYFSYPLTFGQGTKLEIKR
